Measured values: the nanobody polyreactivity screen of Harvey et al. (2022)

Test: yeast display, Sf9 membrane polyspecificity reagent, FACS + sequencing; frameworks hold sequencing errors
Summary of the method: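 A synthetic nanobody library was expressed on Saccharomyces cerevisiae BJ5465 by galactose induction for 36–48 hours. The library was stained for 1 hour at 4 °C with 10% biotinylated, detergent-solubilized Sf9 membrane reagent and enriched with streptavidin microbeads before FACS. Low and high (top ~1%) gates were set on anti-HA fluorescence for expression and streptavidin fluorescence for reagent binding, and each polyreactivity label reflects the gate of origin.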

| Sequence | polyreactivity (PSR sort gate) |
| --- | --- |
| QVQLVESGGGLVQARGSLRLSCAASGFTFYSNAMGWYRQAPGKERELVAVINSDDDSTYYADSVKGRFTISRDNAKNTVYLQMNSLKPEDTAVYYCNKVWRVGKYPYSDRYYFGGGYWGQGTQVTVSS | high polyreactivity |
| QVQLVESGGGLVQARGSLRLSCAASGLTFRRNTMGWYRQAPGKERELVATITSGGSTNYADSVKGRFTISRDNAKNTVYLQMISLKPEDTAVYYCAARTTYITNWVYRHTYTYYYWGQGTQVTVSS | high polyreactivity |
| QVQLVESGGGLVQARGSLRLSCAASGLTFYYYVMGWYRQAPGKERELVAAISYSGGRTYYADSVKGRFTISRDNAKNTVYLQMNSLKPEDTAVYYCAAQSRYGGKFYYWGQGTQVTVSS | high polyreactivity |
| QVQLVESGGGLVQARGSLRLSCAASGRIFSYYAMGWYRQAPGKERELVATISKSGGSTYYADSVKGRFTISRDNAKNTVYLQMNSLKPEDTALYYCAAVGPYRWYDYWGQGTQVTVSS | high polyreactivity |
| QVQLVESGGGLVQARGSLRLSCAASGRNFADYAMGWYRQAPGKERELVAAIDWSDGSTKYADSVKGRFTISRDNAKNTVYLQINSLKPEDTAVYYCGADYWPRDGLGWWYDYWGQGTQVTVSS | low polyreactivity |
| QVQLVESGGGLVQARGSLRLSCAASGRTFVDYVMGWYRQAPGKERELVAAITYSGGSTSYADSVKGRFTISRDYAKNNFNLQMNSLKPEDTAVYYCNADGDHPYSRNDYWGQGTQVTVSS | low polyreactivity |
| QVQLVESGGGLVQARGSLRLSCAASGRTYAGYAMGWYRQAHGKERELVASITSGGRTYYADSVKGRFTISRDNAKNTVYLQMNSLKPEDTAVYYCNKVYKSYYWGGYDWGQGTQVTVSS | high polyreactivity |
| QVQLVESGGGLVQARGSLRLSCAASGSIFFRYTMGWYRPAPGKEWELVATITGSGSSTTYADSVKGRFTISRDNAKNTVYLQMNSLKPEDTAVSYCAAADIIDHSFPYDYWGQGTQVTVSS | low polyreactivity |
| QVQLVESGGGLVQARGSLRLSCAASGSIFTYNAMGWYRQAPGKERELVAAIDYSGGSTYYADSVKGRFTISRDNAKNTVYLQMKSLKPEDTAVYYCAAPWVPYPGYSLYGYDYWGQGTQVSVSS | low polyreactivity |
| QVQLVESGGGLVQARGSLRLSCAASGSIFYNNALGWYRQAPGKERELVAAISGSGDSTYYADSVKGRFTISRENAKNTVYLQMNSLKPEDTAVYYCNATPYVLWWSDMDYWGQGTQVTVSS | high polyreactivity |
| QVQLVESGGGLVQARGSLRLSCAASGSILDYYVMGWYRQAPGKERELVAAIRGGGSTYYADSVKGRFTISRDNAKNTVYLQMNSLKPEDTAVYYCAKDSQTARDFDYWGQGTQVTVSS | low polyreactivity |
| QVQLVESGGGLVQARGSLRLSCAASGSISVYNAMGWYRQAPGKERELVAAISWSGGRTSYADSVKGRFTISRDNAKNTVYLQMNSLKPEDTAVYYCAADELTVLWDEDYWGQGTQVTVSS | low polyreactivity |
| QVQLVESGGGLVQARGSLRLSCAASGSTFDYYAMGWYRQAPGKEWELVAAIDTSGDDTYYADSVKGRFTISRDNAKNTVYLQMNSLKPEDTAVYYCAADFPYDEVDYWGQGTQVTVSS | low polyreactivity |
| QVQLVESGGGLVQARGSLRLSCAASGSTFEHNAMGWYRQGPGKERELVAAISYSGGRTYYADSVKGRFTISRDNAKNTVYLQMNSLKTEDTAVYYCAAPYYSWPYYYWGLGTQVTVSS | high polyreactivity |
| QVQLVESGGGLVQARGSLRLSCAPSGRTFQLNAMGWYRQAPGKERQLFAAITVSGGGKYYADSVKGRFTISRDYAKNTVYFQMNSLKPEDTAVYYCNAKYKTRGRKSLYDYWGQGTQVTVSS | high polyreactivity |
| QVQLVESGGGLVQARGSLRLSCASSGRIFDNYAMGWYRQAPGKERELVAAITYIDSGTYYADSVKGRFTISRDNAKNTVYLQMNSLKPEDTAVFYCAVGLNSDSKRKTQKYGYWGQGTQVTVSS | low polyreactivity |
| QVQLVESGGGLVQARGSLRLSCASSGSIFTDNGMGWYRQPPGKESDLVAAISWRGGTYYADSVKGRFTISRDNAKNTVYLQMNSLKPEDSAVYYSAADVLRISTRLFRGPGFDSWGQGTQVTVSS | low polyreactivity |
| QVQLVESGGGLVQARGSLRLSSAASGSTFSYYAMGGYRQEHGTETQLVATISKRGGSTYYADSVKGRFTISRDNAKNTVYLQMNSLKPEDTAVYYCAAEFLVRYGYDYWGQGTQVTVSS | high polyreactivity |
| QVQLVESGGGLVQAVASIRLSCAASGITIYLYAKGWSRQAPGKARELVATITSRSGSTYYADSVKGRFTISRDNAKNTVYLQMNSLKPEDTAVYYCAAKYPRYLYGYWGQGTQVTVSS | high polyreactivity |
| QVQLVESGGGLVQAVCSLRLSCAASGIIFVYYVMGWYRQAPGKERELVASIDGSGGSTNYADSVKGRFTISRDNAKNTVYLQMNSLKPEDTAVYYCAASGRYDYDYWGQGTQVTVSS | low polyreactivity |

| Sequence | polyreactivity (PSR sort gate) |
| --- | --- |
| QVQLVESGGGLVQAVGSHRLSCAASGRIFGNNVMGWYRQEPGKERELVAANTFSGTSTYYADSVKGRFTISRDNAKNTVYLQMNSLKPEDTAVYYCAKYRYADYYSPGYDYWGQGTQVTVSS | low polyreactivity |
| QVQLVESGGGLVQAVGSLLLSCAASGSIFRVYAMGWSRQAPGKERELVAAISVSGSSTYYADSVKGRFTISRDNAKNTVYFQMNCLIPEDTAVYYCATKQRRGYWGYITAYARYYWGQGTQVTVSS | high polyreactivity |
| QVQLVESGGGLVQAVGSLRLICDASGRIFYGYAMGWYRQAPGTERELVAANTYIGGTYYADSVKGRFTISRDNAKNTVDFLMNSVKPEDTSVYYWATEPFYNYGYFTYPYWYDYWGQGSQVTVSS | low polyreactivity |
| QVQLVESGGGLVQAVGSLRLSCAASGFIFSYYAMGWYRQAPGKERELVAAISRSGSITYYADSVKGRFTISRDNAKNTVYLQMNRLKPEDTAVYYCAARYWRRGSSGRLNYWGQGTQVTVSS | high polyreactivity |
| QVQLVESGGGLVQAVGSLRLSCAASGFIFYRNVMGWYREAPGKERELVAAISGSGGRTYYADSVKGRFTISRDNAKNTVYLQLNSLKPEDTAVYDCAADASLEGDYWGQGTQVTVSS | high polyreactivity |
| QVQLVESGGGLVQAVGSLRLSCAASGFILTRYAMGWYRQAPGKERELVAGIRLRGGSTYYADSVKGRFTISRDNAKNTVYLQMNSLKPEDTAVYYCAARYYYQYDYWGQGTQVTVSS | high polyreactivity |
| QVQLVESGGGLVQAVGSLRLSCAASGITFKWYAMGSYRHAPGKERELVAAISWSTGSTYYADSVKGRFTISRDNAKNTVYLQMNSLKPEDTAVYYCAARVKRPQTGYDRRYGYWGQGTQVTVSS | high polyreactivity |
| QVQLVESGGGLVQAVGSLRLSCAASGITFNLYAMGWYRQAPGKEREFVAGITASGSSTYDADSVKGRFTISRDNAKNTVYLQMNSLKPEDTAVYYCAARWHIYYFSYVTSYAYGYWGQGTQVTVSS | high polyreactivity |
| QVQLVESGGGLVQAVGSLRLSCAASGLIFDANAMGWYRQAPGKERELVAAISNGDSTYYADSVKGRLTISRDNAKNTVYLQMNSLKPEDTAVYYCNARIIYRKWLFRSGTFNYWGQGTQVTVSS | low polyreactivity |
| QVQLVESGGGLVQAVGSLRLSCAASGSIFDVNAMGWYRQAPGKERELVAAISQRGTRTYYADSVKGRFTISRDNAKNTVYLQMNSLKPEDTAVYYCNRGGWRQYDSWGQGTQVTVSS | high polyreactivity |
| QVQLVESGGGLVQAVGSLRLSCAASGSISVYYAMGWYRQAPGKEMELVAAISRSGGRTYYADSVKGRFTISRDNAKNTVYLQMNSLKPEDTAVYYCAAGYSSLRRFGVYYWGQGTQVTVSS | high polyreactivity |
| QVQLVESGGGLVQAVGSLRLSCAASGSTFDHYAMGWYRQAPGKERELVAAISYSGSTTDYADSVKGRFTISRDNAMNTVYLQMISLKPEDTAVYYCAASGDVIQSPMDYWGQGTQVTVSS | low polyreactivity |
| QVQLVESGGGLVQAVGSLRLSCAASGSTFFWYAMGWYRQAPGKERELVAAISKTGGSTYYADSVKGRFTISRDNAKNTVYLQMNSLKPEDTAVYYCAKPLSSFSRTSSVWPWYDYWGQGTQVTVSS | low polyreactivity |
| QVQLVESGGGLVQAVGSLRLSCAASGSTLSFNAMGWYRQAPGKERELVAGITYSGGSTYYADSVKGRFTISRDNAKNTVYLQMNSLKPEDTAVYYCNKASGVYYGHLDYWGQGTQVTVSS | low polyreactivity |
| QVQLVESGGGLVQAVGSLRLSCAASGYFFSSNAMGWYSQSPGKERELVAAITASGGGTYYADSVKGRFTISRDNAQNTVYIQMKSLKPEDTAVYYCAADFNDHYYWYGQDFDYWGQGTQVTVSS | low polyreactivity |
| QVQLVESGGGLVQAVGSLRLSCAAYGSTFYVNAMGWYRQAPGKEREFVAAITWNSGSTYYADSVKGRFTISRDNAKNTVYLQMNSLKPEDTAVYYCAAVLYVRVYGYDYWGQGTQVTVSS | low polyreactivity |
| QVQLVESGGGLVQAVGSLRLSCASSGNTFGPNAMGWYRQAPGKERELVAAIRWRGGSTYYADSVKGRFTISRDYAKNTVYLQMNSLKPVDNAVYYCAAGIHSPTYRTGTTYVDYDYWGQGTQVTVSS | high polyreactivity |
| QVQLVESGGGLVQAVGSLRLSCDASGSTFYPYAIGWYRQAPAKESELVARITRGVGSTYYADSVKGRFTISRDNAKNTVYLQMNSLIPEDTAVYYCNRVEYFTVWGYDYWGQGTQVTVSS | low polyreactivity |
| QVQLVESGGGLVQAVGSLRLSSAASRSTFGLNAMGWYRQAPGKESELVAAITFSGGSTYYADSVKGRFTISRDNANNTVYLQKNSLKPEDTAVYYCAARFSLEGGYYWGQGTQVTVSS | low polyreactivity |
| QVQLVESGGGLVQAVRSRRLSSAASGSIFYFYPMGWYRQAPGKDREFVAAISSGGSTYYSDSVKGRFTNSRDNAKYTVYLQMNSLKPEDTAVYYCAAVSLYYRYDFWGQGTQVTVSS | low polyreactivity |
